Reference: the supplement of paper PMC9112550, “Optimization of the antimicrobial peptide Bac7 by deep mutational scanning” (BMC Biology, 2022)

System: Escherichia coli TOP10
Assay: shrunken log2 fold change of peptide-encoding DNA abundance (4.5 h post-induction vs induction); higher = less antimicrobial activity (less host growth inhibition)
Conditions: time post-induction: 4.5 h; library: site-saturation at positions 5, 18, 19, 20
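Further: peptides expressed intracellularly from a pBAD plasmid library in pooled LB shake-flask culture, induced with 0.3% L-arabinose, DNA abundance read by NGS, three biological replicates, DESeq2 with apeglm shrinkage.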

Row | Sequence | shrunken log2 fold change
1 | RRIRIRPPRLPRPRPRPSDDPRP | -0.191
2 | RRIRIRPPRLPRPRPRPSEHPRP | -0.36
3 | RRIRIRPPRLPRPRPRPSEQPRP | -0.0663
4 | RRIRIRPPRLPRPRPRPSFIPRP | -1.24
5 | RRIRIRPPRLPRPRPRPSFRPRP | -0.671
6 | RRIRIRPPRLPRPRPRPSGVPRP | -0.666
7 | RRIRIRPPRLPRPRPRPSILPRP | -0.878
8 | RRIRIRPPRLPRPRPRPSIQPRP | -0.252
9 | RRIRIRPPRLPRPRPRPSKEPRP | -0.202
10 | RRIRIRPPRLPRPRPRPSKGPRP | -0.142
11 | RRIRIRPPRLPRPRPRPSKHPRP | -0.813
12 | RRIRIRPPRLPRPRPRPSKPPRP | -0.189
13 | RRIRIRPPRLPRPRPRPSLHPRP | -0.824
14 | RRIRIRPPRLPRPRPRPSLRPRP | -0.72
15 | RRIRIRPPRLPRPRPRPSMEPRP | -0.343
16 | RRIRIRPPRLPRPRPRPSMFPRP | -0.801
17 | RRIRIRPPRLPRPRPRPSNNPRP | -0.656
18 | RRIRIRPPRLPRPRPRPSQMPRP | -0.0716
19 | RRIRIRPPRLPRPRPRPSQYPRP | -0.555
20 | RRIRIRPPRLPRPRPRPSRFPRP | -0.278
21 | RRIRIRPPRLPRPRPRPSRHPRP | -0.384
22 | RRIRIRPPRLPRPRPRPSVYPRP | -0.277
23 | RRIRIRPPRLPRPRPRPSWAPRP | -0.0867
24 | RRIRIRPPRLPRPRPRPSWIPRP | -0.411
25 | RRIRIRPPRLPRPRPRPSWKPRP | -0.242

Row | Sequence | shrunken log2 fold change
26 | RRIRIRPPRLPRPRPRPSWRPRP | 0.144
27 | RRIRIRPPRLPRPRPRPSYGPRP | -0.53
28 | RRIRIRPPRLPRPRPRPSYYPRP | -1.34
29 | RRIRIRPPRLPRPRPRPTARPRP | 0.0575
30 | RRIRIRPPRLPRPRPRPTCNPRP | -0.313
31 | RRIRIRPPRLPRPRPRPTDEPRP | 0.125
32 | RRIRIRPPRLPRPRPRPTDHPRP | -0.368
33 | RRIRIRPPRLPRPRPRPTFPPRP | -0.316
34 | RRIRIRPPRLPRPRPRPTGIPRP | -0.0849
35 | RRIRIRPPRLPRPRPRPTICPRP | -0.191
36 | RRIRIRPPRLPRPRPRPTIMPRP | -0.745
37 | RRIRIRPPRLPRPRPRPTKNPRP | -0.355
38 | RRIRIRPPRLPRPRPRPTKRPRP | -0.0508
39 | RRIRIRPPRLPRPRPRPTNRPRP | -0.326
40 | RRIRIRPPRLPRPRPRPTPYPRP | -0.44
41 | RRIRIRPPRLPRPRPRPTQMPRP | 0.565
42 | RRIRIRPPRLPRPRPRPTQTPRP | 0.0595
43 | RRIRIRPPRLPRPRPRPTRPPRP | 0.763
44 | RRIRIRPPRLPRPRPRPTSAPRP | 0.065
45 | RRIRIRPPRLPRPRPRPTSQPRP | -0.283
46 | RRIRIRPPRLPRPRPRPTSTPRP | -0.0986
47 | RRIRIRPPRLPRPRPRPTWAPRP | 0.0207
48 | RRIRIRPPRLPRPRPRPTWDPRP | 0.372
49 | RRIRIRPPRLPRPRPRPTWGPRP | 0.0223
50 | RRIRIRPPRLPRPRPRPTWRPRP | 0.274

Row | Sequence | shrunken log2 fold change
51 | RRIRIRPPRLPRPRPRPTYVPRP | -0.0344
52 | RRIRIRPPRLPRPRPRPVAMPRP | -0.0657
53 | RRIRIRPPRLPRPRPRPVCQPRP | -0.202
54 | RRIRIRPPRLPRPRPRPVCYPRP | -0.633
55 | RRIRIRPPRLPRPRPRPVEAPRP | -0.205
56 | RRIRIRPPRLPRPRPRPVEQPRP | 0.107
57 | RRIRIRPPRLPRPRPRPVFRPRP | -0.169
58 | RRIRIRPPRLPRPRPRPVFTPRP | -0.305
59 | RRIRIRPPRLPRPRPRPVGEPRP | -0.0964
60 | RRIRIRPPRLPRPRPRPVIHPRP | -0.248
61 | RRIRIRPPRLPRPRPRPVINPRP | -0.198
62 | RRIRIRPPRLPRPRPRPVIQPRP | -1.44
63 | RRIRIRPPRLPRPRPRPVLFPRP | -0.357
64 | RRIRIRPPRLPRPRPRPVLIPRP | -0.469
65 | RRIRIRPPRLPRPRPRPVLSPRP | -0.311
66 | RRIRIRPPRLPRPRPRPVMLPRP | -0.776
67 | RRIRIRPPRLPRPRPRPVNAPRP | -0.113
68 | RRIRIRPPRLPRPRPRPVNKPRP | -0.426
69 | RRIRIRPPRLPRPRPRPVPKPRP | 0.0597
70 | RRIRIRPPRLPRPRPRPVQEPRP | 0.00511
71 | RRIRIRPPRLPRPRPRPVRAPRP | 0.172
72 | RRIRIRPPRLPRPRPRPVRCPRP | 0.201
73 | RRIRIRPPRLPRPRPRPVRIPRP | 0.154
74 | RRIRIRPPRLPRPRPRPVSQPRP | -0.0669
75 | RRIRIRPPRLPRPRPRPVVMPRP | -0.0043

Row | Sequence | shrunken log2 fold change
76 | RRIRIRPPRLPRPRPRPVVSPRP | -0.503
77 | RRIRIRPPRLPRPRPRPWCTPRP | -0.757
78 | RRIRIRPPRLPRPRPRPWDPPRP | -0.0252
79 | RRIRIRPPRLPRPRPRPWIAPRP | -0.717
80 | RRIRIRPPRLPRPRPRPWKLPRP | -0.0644
81 | RRIRIRPPRLPRPRPRPWKPPRP | -0.093
82 | RRIRIRPPRLPRPRPRPWLLPRP | -0.0948
83 | RRIRIRPPRLPRPRPRPWLRPRP | -0.358
84 | RRIRIRPPRLPRPRPRPWLTPRP | -0.096
85 | RRIRIRPPRLPRPRPRPWMGPRP | -0.185
86 | RRIRIRPPRLPRPRPRPWNKPRP | -0.0719
87 | RRIRIRPPRLPRPRPRPWPEPRP | -0.162
88 | RRIRIRPPRLPRPRPRPWPHPRP | -0.394
89 | RRIRIRPPRLPRPRPRPWPIPRP | -0.0934
90 | RRIRIRPPRLPRPRPRPWPLPRP | -0.122
91 | RRIRIRPPRLPRPRPRPWQCPRP | 0.034
92 | RRIRIRPPRLPRPRPRPWQSPRP | -0.0531
93 | RRIRIRPPRLPRPRPRPWWVPRP | -0.077
94 | RRIRIRPPRLPRPRPRPWYAPRP | -0.644
95 | RRIRIRPPRLPRPRPRPYAHPRP | -0.184
96 | RRIRIRPPRLPRPRPRPYCEPRP | -0.21
97 | RRIRIRPPRLPRPRPRPYEWPRP | -0.00783
98 | RRIRIRPPRLPRPRPRPYFVPRP | -0.612
99 | RRIRIRPPRLPRPRPRPYGVPRP | -0.266
100 | RRIRIRPPRLPRPRPRPYHPPRP | -0.0475

Row | Sequence | shrunken log2 fold change
101 | RRIRIRPPRLPRPRPRPYHTPRP | -1.25
102 | RRIRIRPPRLPRPRPRPYKTPRP | -0.0104
103 | RRIRIRPPRLPRPRPRPYLMPRP | -0.143
104 | RRIRIRPPRLPRPRPRPYMKPRP | -0.495
105 | RRIRIRPPRLPRPRPRPYMRPRP | 0.0163
106 | RRIRIRPPRLPRPRPRPYMTPRP | -1.6
107 | RRIRIRPPRLPRPRPRPYNKPRP | -0.783
108 | RRIRIRPPRLPRPRPRPYQKPRP | -0.243
109 | RRIRIRPPRLPRPRPRPYRPPRP | -0.0527
110 | RRIRIRPPRLPRPRPRPYSCPRP | -0.0992
111 | RRIRIRPPRLPRPRPRPYSSPRP | -0.239
112 | RRIRIRPPRLPRPRPRPYTCPRP | -0.0187
113 | RRIRIRPPRLPRPRPRPYTGPRP | -0.177
114 | RRIRIRPPRLPRPRPRPYVYPRP | -0.144
115 | RRIRIRPPRLPRPRPRPYWMPRP | -0.379
116 | RRIRIRPPRLPRPRPRPYYTPRP | -0.389
117 | RRIRKRPPRLPRPRPRPAAPPRP | 1.6
118 | RRIRKRPPRLPRPRPRPAASPRP | 0.593
119 | RRIRKRPPRLPRPRPRPAATPRP | 0.838
120 | RRIRKRPPRLPRPRPRPADGPRP | 0.223
121 | RRIRKRPPRLPRPRPRPADYPRP | -0.0391
122 | RRIRKRPPRLPRPRPRPAFFPRP | 0.411
123 | RRIRKRPPRLPRPRPRPAFPPRP | 0.165
124 | RRIRKRPPRLPRPRPRPAFSPRP | -0.0331
125 | RRIRKRPPRLPRPRPRPAIFPRP | 0.233

Row | Sequence | shrunken log2 fold change
126 | RRIRKRPPRLPRPRPRPAIHPRP | -0.0696
127 | RRIRKRPPRLPRPRPRPAIQPRP | 0.396
128 | RRIRKRPPRLPRPRPRPAISPRP | 0.214
129 | RRIRKRPPRLPRPRPRPAKCPRP | 0.174
130 | RRIRKRPPRLPRPRPRPALDPRP | 0.772
131 | RRIRKRPPRLPRPRPRPALGPRP | 0.0812
132 | RRIRKRPPRLPRPRPRPALTPRP | 0.622
133 | RRIRKRPPRLPRPRPRPANVPRP | -0.196
134 | RRIRKRPPRLPRPRPRPAQTPRP | 0.246
135 | RRIRKRPPRLPRPRPRPATAPRP | 0.18
136 | RRIRKRPPRLPRPRPRPATYPRP | 0.0782
137 | RRIRKRPPRLPRPRPRPAVHPRP | 0.112
138 | RRIRKRPPRLPRPRPRPAVVPRP | 0.0614
139 | RRIRKRPPRLPRPRPRPAWHPRP | 0.378
140 | RRIRKRPPRLPRPRPRPAYHPRP | -0.144
141 | RRIRKRPPRLPRPRPRPAYWPRP | 0.424
142 | RRIRKRPPRLPRPRPRPCACPRP | 0.0293
143 | RRIRKRPPRLPRPRPRPCAFPRP | 0.0922
144 | RRIRKRPPRLPRPRPRPCCWPRP | 1.1
145 | RRIRKRPPRLPRPRPRPCDIPRP | -0.0579
146 | RRIRKRPPRLPRPRPRPCMWPRP | -0.189
147 | RRIRKRPPRLPRPRPRPCPFPRP | -0.223
148 | RRIRKRPPRLPRPRPRPCPGPRP | -0.251
149 | RRIRKRPPRLPRPRPRPCRHPRP | -0.00769
150 | RRIRKRPPRLPRPRPRPCRNPRP | -0.0611
